Experimental data published in patent US20240101668A1 (WUGEN, published 2024).

Key:
[1] = target: T1, huCD33-R69-His recombinant protein (human, UniProt P20138 18-259); experiment: BLI
T1 construct: extracellular domain
Protocol: (§1) Discovered scFvs were analyzed for binding to huCD33-R69-His or huCD33-G69-Fc recombinant proteins (for anti-CD33 scFvs; for CLL-1 scFvs, huCLL1-K244-Avi-Tev-His or huCLL1-Q244-Avi-Tev-His were used; for FLT3, huFLT3-T227-His or huFLT3-M227-Fc were used) using BLI on a ForteBio Octet HTX instrument. Streptavidin-coated biosensors were loaded with biotinylated anti-V5 tag monoclonal antibody for 5 min and were then quenched and blocked with 20 μM amine-PEG2-Biotin for 5 min. scFvs were captured on biosensors from scFv clone periplasmic extracts. huCD33 (or huCLL-1, or huFLT3) proteins were then associated with the captured scFvs for 2 minutes, followed by dissociation with buffer (1×HBST [10 mM HEPES pH 7.4, 150 mM NaCl, 0.05% Tween-20], 1 g/L BSA) for 5 minutes. […] Data was fitted with 1:1 Langmuir equation and off-rate values were reported.

[2] = target: T2, huCD33-G69-Fc recombinant protein (human, UniProt P20138 18-259); experiment: BLI
T2 construct: extracellular domain; also called CD33 R69G
Protocol: as §1

[3] = target: T3, huCD33-R69 stably expressed on Jurkat cells (human, UniProt P20138 18-364); experiment: FACS on cells;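 note: fixed Jurkat cells bearing either CD33 variant, barcoded by dye, exposed to myc-tagged scFv periplasmic extracts, detected with anti-myc PE antibody and read by flow cytometry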
T3 construct: whole, on cells; >200,000 receptors per cell; also called CD33 WT; CD33^ARG69
T3 sequence (P20138 18-364): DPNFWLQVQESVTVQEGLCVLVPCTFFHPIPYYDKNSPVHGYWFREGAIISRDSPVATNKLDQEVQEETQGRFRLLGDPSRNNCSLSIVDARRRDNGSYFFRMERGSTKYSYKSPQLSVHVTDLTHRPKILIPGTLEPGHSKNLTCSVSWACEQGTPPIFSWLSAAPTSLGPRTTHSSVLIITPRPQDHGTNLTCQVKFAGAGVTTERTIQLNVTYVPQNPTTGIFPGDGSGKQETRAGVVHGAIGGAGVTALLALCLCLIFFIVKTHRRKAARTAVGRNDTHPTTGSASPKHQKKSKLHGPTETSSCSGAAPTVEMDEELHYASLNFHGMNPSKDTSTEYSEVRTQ
Protocol: (§2) Jurkat cells were engineered to stably express either the huCD33-R69 or huCD33-G69 variant at >200,000 receptors per cell. Parental, huCD33-R69, and huCD33-G69 Jurkat cell lines were stained with differing levels of CellTrace Violet Cell Proliferation Kit (ThermoFisher, cat. #C34557) to barcode each cell line. Barcoded Jurkat cell lines were fixed with paraformaldehyde and incubated with myc-labeled scFv periplasmic extracts and a secondary anti-myc PE-conjugated monoclonal antibody. Appropriate positive and negative controls were used. Stained cells were analyzed by flow cytometry (CytoFLEX, Beckman Coulter, Inc.) and binding was assessed by change in PE mean fluorescence intensity (MFI) of the barcoded cell populations.

[4] = target: T4, huCD33-G69 stably expressed on Jurkat cells (human, UniProt P20138 18-364); experiment: FACS on cells;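 note: fixed Jurkat cells bearing either CD33 variant, barcoded by dye, exposed to myc-tagged scFv periplasmic extracts, detected with anti-myc PE antibody and read by flow cytometry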
T4 construct: whole, on cells; >200,000 receptors per cell; also called CD33 Mutant; CD33 R69G
T4 sequence (P20138 18-364 R69G): as the sequence (P20138 18-364) above, with R52G counted along it
Protocol: as §2

huFLT3-T227-His = target: T5, huFLT3-T227-His (human, UniProt P36888 27-543); experiment: BLI
T5 construct: extracellular domain; also called FLT3 WT
Protocol: as §1

huFLT3-M227-Fc = target: T6, huFLT3-M227-Fc (human, UniProt P36888 27-543); experiment: BLI
T6 construct: extracellular domain; also called FLT3 Mutant
Protocol: as §1

T1 sequence (P20138 18-259): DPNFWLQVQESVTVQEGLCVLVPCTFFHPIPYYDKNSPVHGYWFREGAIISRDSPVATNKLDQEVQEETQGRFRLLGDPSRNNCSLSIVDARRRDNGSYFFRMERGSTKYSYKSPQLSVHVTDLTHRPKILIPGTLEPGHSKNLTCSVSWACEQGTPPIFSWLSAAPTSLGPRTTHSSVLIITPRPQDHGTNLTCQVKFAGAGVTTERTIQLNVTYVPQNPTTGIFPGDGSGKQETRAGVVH
T2 sequence (P20138 18-259 R69G): as the sequence (P20138 18-259) above, with R52G counted along it

| Binder | binding result [1] | binding result [2] | geometric mean MFI fold change over Jurkat parental [3] | geometric mean MFI fold change over Jurkat parental [4] | binding result (huFLT3-T227-His) | binding result (huFLT3-M227-Fc) |
| --- | --- | --- | --- | --- | --- | --- |
| Polypeptide No. 26 (scFv, V domains shown, scFv) VH: QVQLVQSGAEVKKPGASVKVSCKASGYTFTENEMHWVRQAPGQGLEWMGWMNPNSGNTGYAQKFQGRVTMTRDTSTSTVYMELSSLRSEDTAVYYCAREGGDWPYYYMDVWGKGTTVTVSS VL: DIQMTQSPSSLSASVGDRVTITCQASQDIRNYLNWYQQKPGKAPKLLIYAASSLQSGVPSRFSGSGSGTDFTLTISSLQPEDFATYYCQQTSSTPLTFGPGTKVDIKR | no binding | binds | < 2 fold | 2 to 10 fold | – | – |
| Polypeptide No. 27 (scFv, V domains shown, scFv) VH: QVQLVQSGAEVKKPGASVKVSCKASGYTLTGYYMHWVRQAPGQGLEWMGWMNPSSGNTGYAQQFQGRVTMTRDTSTSTVYMELSSLRSEDTAVYYCARASSDRYYYDGVWYFDLWGRGTLVTVSS VL: DIQMTQSPSSLSASVGDRVTITCRASQDIRNNLGWYQQKPGKAPKLLIYGASSLQSGVPSRFSGSGSGTDFTLTISSLQPEDFATYYCQQTYSSPPTFGQGTKLEIKR | no binding | binds | < 2 fold | 2 to 10 fold | – | – |
| Polypeptide No. 29 (scFv, V domains shown, scFv) VH: QVQLVQSGAEVKKPGASVKVSCKASGYTFTGYYLHWVRQAPGQGLEWMGVINVRRGSTRYAQNFQGRVTMTRDTSTSTVYMELSSLRSEDTAVYYCARVSGSYYQPWGQGTLVTVSS VL: DIQMTQSPSSLSASVGDRVTITCRASQSISRWLAWYQQKPGKAPKLLIYDASNLETGVPSRFSGSGSGTDFTLTISSLQPEDFATYYCQQGNSFPPIFGGGTKVEIKR | no binding | binds | < 2 fold | 2 to 10 fold | – | – |
| Polypeptide No. 227 (scFv, V domains shown, scFv) VH: QVQLVQSGAEVKKPGSSVKVSCKASGYTLNELFMHWVRQAPGQGLEWVGGIIPMSGTTFYAQTFQGRVTITADESTSTAYMELSSLRSEDTAVYYCAKGVRQYSYGRYYYGMDVWGQGTLVTVSS VL: DIQMTQSPSSLSASVGDRVTITCRASQSVSSYLNWYQQKPGKAPKLLIYGASNLQSGVPSRFSGSGSGTDFTLTISSLQPEDFATYYCQQSYTTPWTFGQGTRLEIKR | – | – | – | – | binds | binds |
| Polypeptide No. 230 (scFv, V domains shown, scFv) VH: QVQLVQSGAEVKKPGSSVKVSCKASGGTFSSNAINWVRQAPGQGLEWMGGIIPLFGTTNYAQKFQGRVTITADESTSTAYMELSSLRSEDTAVYYCARVLSGWYGTYYFDYWGQGTLVTVSS VL: EIVMTQSPATLSVSPGERATLSCRASQSVSADYIAWYQQKPGQAPRLLIYDVSTRASGIPARFSGSGSGTEFTLTISSLQSEDFAVYYCQHYGSSQVTFGQGTKVEIKR | – | – | – | – | binds | binds |
| Polypeptide No. 232 (scFv, V domains shown, scFv) VH: QVQLVQSGAEVKKPGASVKVSCKASGYTFTSYGIHWVRQAPGQGLEWMGGIIPIFGTASYAQKFQGRVTMTRDTSTSTVYMELSSLRSEDTAVYYCTRSNGIAAAGTHWYFDLWGRGTLVTVSS VL: DIQMTQSPSSLSASVGDRVTITCRASQNIANSLNWYQQKPGKAPKLLIYAASSLQSGVPSRFSGSGSGTDFTLTISSLQPEDFATYYCQQYSSYPPTFGPGTKVDIKR | – | – | – | – | binds | binds |
| Polypeptide No. 234 (scFv, V domains shown, scFv) VH: QVQLVQSGAEVKKPGSSVKVSCKASGHTFTAYYMHWVRQAPGQGLEWMGWMSPYSGNTGYAQNFQGRVTITADESTSTAYMELSSLRSEDTAVYYCARATRGTIQHWGQGTLVTVSS VL: not shown | – | – | – | – | binds | binds |
| Polypeptide No. 236 (scFv, V domains shown, scFv) VH: QVQLVQSGAEVKKPGSSVKVSCKASGGTFSSYAISWVRQAPGQGLEWMGGIIPILGIANYAQKFQGRVTITADESTSTAYMELSSLRSEDTAVYYCAHVDGYGMDVWGQGTTVTVSS VL: EIVMTQSPATLSVSPGERATLSCRASQSVSSNLAWYQQKPGQAPRLLIYDVSSRATGIPARFSGSGSGTEFTLTISSLQSEDFAVYYCQQLDAYPLTFGGGTKVEIKR | – | – | – | – | binds | binds |
| Polypeptide No. 251 (scFv, V domains shown, scFv) VH: QVQLVQSGAEVKKPGSSVKVSCKASGGTFSSDAINWVRQAPGQGLEWMGGIIPIVGTPTYAQKFQGRVTITADESTSTAYMELSSLRSEDTAVYYCAKGLAFGVFDGLDVWGQGTTVTVSS VL: EIVMTQSPATLSVSPGERATLSCRASQSVSSNYLAWYQQKPGQAPRLLIYDVSTRATGIPARFSGSGSGTEFTLTISSLQSEDFAVYYCQQYGSSTLTFGGGTKVEIKR | – | – | – | – | binds | binds |
| Polypeptide No. 252 (scFv, V domains shown, scFv) VH: QVQLVQSGAEVKKPGSSVKVSCKASGYTLTDLSIHWVRQAPGQGLEWVGGIIPMSGTANYAQKFQGRVTITADESTSTAYMELSSLRSEDTAVYYCARSSSSWPKYFQHWGQGTLVTVSS VL: not shown | – | – | – | – | binds | binds |
| Polypeptide No. 255 (scFv, V domains shown, scFv) VH: QVQLVQSGAEVKKPGSSVKVSCKASGYTLTELSMHWVRQAPGQGLEWMGGIIPISGTVTYAQKFQGRVTITADESTSTAYMELSSLRSEDTAVYYCANKGQQLVRGYFQHWGQGTLVTVSS VL: DIQMTQSPSSLSASVGDRVTITCQASHDIRNSVNWYQQKPGKAPKLLIYATSSLQSGVPSRFSGSGSGTDFTLTISSLQPEDFATYYCQQSYNTPFTFGQGTKLEIKR | – | – | – | – | binds | binds |
| Polypeptide No. 264 (scFv, V domains shown, scFv) VH: QVQLVQSGAEVKKPGSSVKVSCKASGYTLTELSMHWVRQAPGQGLEWMGGIIPISSATSIPQKFQGRVTITADESTSTAYMELSSLRSEDTAVYYCARGALYSSSPVRVVAGTKGWFDPWGQGTLVTVSS VL: DIQMTQSPSSLSASVGDRVTITCRASQDISNYLAWYQQKPGKAPKLLIYAASSLQSGVPSRFSGSGSGTDFTLTISSLQPEDFATYYCQQYYSYPLTFGGGTKVEIKR | – | – | – | – | binds | binds |
| Polypeptide No. 266 (scFv, V domains shown, scFv) VH: QVQLVQSGAEVKKPGSSVKVSCKASGYSLTELSIHWVRQAPGQGLEWMGGINPISGTANYAQKFQGRVTITADESTSTAYMELSSLRSEDTAVYYCARGTVRLNWFDPWGQGTLVTVSS VL: EIVMTQSPATLSVSPGERATLSCRASQSVGSQLGWYQQKPGQAPRLLIYGASTRATGIPARFSGSGSGTEFTLTISSLQSEDFAVYYCQQSFSTPLTFGGGTKVEIKR | – | – | – | – | binds | binds |
| Polypeptide No. 267 (scFv, V domains shown, scFv) VH: QVQLVQSGAEVKKPGSSVKVSCKASGYTLTSFGISWVRQAPGQGLEWVGMIIPLSGTTHYAQKFQGRVTITADESTSTAYMELSSLRSEDTAVYYCANLYGGNAYYYYGMDVWGQGTTVTVSS VL: DIQMTQSPSSLSASVGDRVTITCRASQDISNFVAWYQQKPGKAPKLLIYAASSLQSGVPSRFSGSGSGTDFTLTISSLQPEDFATYYCQQSFDTPYTFGQGTKLEIKR | – | – | – | – | binds | binds |
| Polypeptide No. 271 (scFv, V domains shown, scFv) VH: not shown VL: EIVMTQSPATLSVSPGERATLSCRASQSVSYNQLAWYQQKPGQAPRLLIYDISSRAAGIPARFSGSGSGTEFTLTISSLQSEDFAVYYCQQYGGLPATFGQGTRLEIKR | – | – | – | – | binds | binds |
| Polypeptide No. 272 (scFv, V domains shown, scFv) VH: QVQLVQSGAEVKKPGSSVKVSCKASGYIFTNYYIQWVRQAPGQGLEWMGGIIPIFGTVGYAQKFQGRVTITADESTSTAYMELSSLRSEDTAVYYCARGRIGGGNDYWGQGTLVTVSS VL: DIQMTQSPSSLSASVGDRVTITCQASQYISNYLNWYQQKPGKAPKLLIYDASSLESGVPSRFSGSGSGTDFTLTISSLQPEDFATYYCQQSYSTPYTFGQGTKLEIKR | – | – | – | – | binds | binds |
| Polypeptide No. 274 (scFv, V domains shown, scFv) VH: QVQLVQSGAEVKKPGSSVKVSCKASGYTFTYRYLHWVRQAPGQGLEWMGRITPISGTTNYAQKFQGRVTITADESTSTAYMELSSLRSEDTAVYYCAKDSGQLAHYGMDVWGQGTTVTVSS VL: not shown | – | – | – | – | binds | binds |
| Polypeptide No. 275 (scFv, V domains shown, scFv) VH: QVQLVQSGAEVKKPGSSVKVSCKASGYTFTSYYMHWVRQAPGQGLEWMGWMNPYSGNTGYAQKFQGRVTITADESTSTAYMELSSLRSEDTAVYYCARVGSGWYSDYWGQGTLVTVSS VL: not shown | – | – | – | – | binds | binds |
| Polypeptide No. 277 (scFv, V domains shown, scFv) VH: QVQLVQSGAEVKKPGSSVKVSCKASGYTFTGYYMHWVRQAPGQGLEWMGWIDPNSGGTNYAQKFQGRVTITADESTSTAYMELSSLRSEDTAVYYCARDVDTAMVTDYWGRGTLVTVSS VL: EIVMTQSPATLSVSPGERATLSCRASQSVDNLVGWYQQKPGQAPRLLIYDISSRATGIPARFSGSGSGTEFTLTISSLQSEDFAVYYCQQYGRSPITFGQGTRLEIKR | – | – | – | – | binds | binds |
| Polypeptide No. 285 (scFv, V domains shown, scFv) VH: QVQLVQSGAEVKKPGSSVKVSCKASGYSFTNYYMHWVRQAPGQGLEWMGGIIPVFGTTTYSQTFQGRVTITADESTSTAYMELSSLRSEDTAVYYCARESQDGDFDYWGQGTLVTVSS VL: not shown | – | – | – | – | binds | binds |
